Measured values reported in US20240025984A1 (FLUX THERAPEUTICS, published 2024).
Values belong to the binder of their own block, whether it stands above or below them.

Molecular target: T1, SYNGAP1-nanoluc-alfa-tag-fusion
T1 chain: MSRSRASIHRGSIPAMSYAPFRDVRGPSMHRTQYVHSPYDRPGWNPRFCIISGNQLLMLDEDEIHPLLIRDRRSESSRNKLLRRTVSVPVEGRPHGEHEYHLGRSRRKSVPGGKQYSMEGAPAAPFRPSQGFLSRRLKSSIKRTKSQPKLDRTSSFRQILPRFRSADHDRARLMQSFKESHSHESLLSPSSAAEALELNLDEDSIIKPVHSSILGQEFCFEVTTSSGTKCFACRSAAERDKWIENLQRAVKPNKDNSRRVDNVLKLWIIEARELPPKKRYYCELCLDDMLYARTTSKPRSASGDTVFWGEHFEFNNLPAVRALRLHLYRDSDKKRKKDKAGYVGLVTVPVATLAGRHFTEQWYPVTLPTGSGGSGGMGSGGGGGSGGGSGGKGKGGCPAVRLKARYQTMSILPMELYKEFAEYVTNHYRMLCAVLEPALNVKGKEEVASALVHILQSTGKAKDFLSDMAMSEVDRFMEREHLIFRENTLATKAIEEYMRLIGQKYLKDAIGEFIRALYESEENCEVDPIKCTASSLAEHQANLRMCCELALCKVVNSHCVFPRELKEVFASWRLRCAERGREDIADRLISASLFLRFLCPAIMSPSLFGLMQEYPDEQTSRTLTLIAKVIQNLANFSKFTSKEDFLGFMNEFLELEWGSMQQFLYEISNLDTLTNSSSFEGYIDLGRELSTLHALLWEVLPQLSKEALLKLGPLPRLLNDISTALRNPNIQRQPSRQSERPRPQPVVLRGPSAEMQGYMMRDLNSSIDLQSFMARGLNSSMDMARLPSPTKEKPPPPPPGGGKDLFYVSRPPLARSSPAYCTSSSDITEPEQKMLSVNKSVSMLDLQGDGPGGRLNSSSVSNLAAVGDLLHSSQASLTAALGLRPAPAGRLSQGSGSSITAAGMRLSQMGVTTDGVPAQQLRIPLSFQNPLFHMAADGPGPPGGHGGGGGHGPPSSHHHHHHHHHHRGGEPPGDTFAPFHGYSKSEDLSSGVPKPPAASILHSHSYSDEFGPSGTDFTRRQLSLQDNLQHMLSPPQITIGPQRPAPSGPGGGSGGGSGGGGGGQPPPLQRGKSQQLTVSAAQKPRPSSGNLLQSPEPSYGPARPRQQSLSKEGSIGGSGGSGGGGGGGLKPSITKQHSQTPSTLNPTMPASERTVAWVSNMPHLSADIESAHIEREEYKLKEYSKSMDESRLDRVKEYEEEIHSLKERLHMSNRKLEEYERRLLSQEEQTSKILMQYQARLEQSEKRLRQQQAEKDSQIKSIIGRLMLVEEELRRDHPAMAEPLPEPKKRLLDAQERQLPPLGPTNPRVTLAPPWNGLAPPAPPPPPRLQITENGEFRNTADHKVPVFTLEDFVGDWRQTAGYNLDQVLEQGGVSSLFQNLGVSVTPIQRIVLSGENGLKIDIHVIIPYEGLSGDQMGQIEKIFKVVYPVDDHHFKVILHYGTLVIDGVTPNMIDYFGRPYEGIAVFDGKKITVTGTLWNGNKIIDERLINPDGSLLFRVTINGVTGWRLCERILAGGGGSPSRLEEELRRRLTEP
Experiment: cell-based or functional assay

increase in SYNGAP1 expression over the control: ≥ 2 fold
B1: FireflyLuciferase-P2A-anti-syngap1_FLX00157-Cezanne (other)
chain: MEDAKNIKKGPAPFYPLEDGTAGEQLHKAMKRYALVPGTIAFTDAHIEVDITYAEYFEMSVRLAEAMKRYGLNTNHRIVVCSENSLQFFMPVLGALFIGVAVAPANDIYNERELLNSMGISQPTVVFVSKKGLQKILNVQKKLPIIQKIIIMDSKTDYQGFQSMYTFVTSHLPPGFNEYDFVPESFDRDKTIALIMNSSGSTGLPKGVALPHRTACVRFSHARDPIFGNQIIPDTAILSVVPFHHGFGMFTTLGYLICGFRVVLMYRFEEELFLRSLQDYKIQSALLVPTLFSFFAKSTLIDKYDLSNLHEIASGGAPLSKEVGEAVAKRFHLPGIRQGYGLTETTSAILITPEGDDKPGAVGKVVPFFEAKVVDLDTGKTLGVNQRGELCVRGPMIMSGYVNNPEATNALIDKDGWLHSGDIAYWDEDEHFFIVDRLKSLIKYKGYQVAPAELESILLQHPNIFDAGVAGLPDDDAGELPAAVVVLEHGKTMTEKEIVDYVASQVTTAKKLRGGVVFVDEVPKGLTGKLDARKIREILIKAKKGGKIAVTRLKGSGATNFSLLKQAGDVEENPGPRSGTGSSGQVQLVESGGGLVQAGASLRLSCAASERTFGHYAMGWFRQAPGKEREFVATISWKGGTTGYAHSVKGRFTISRDSAKNMVYLQMNSLKPEDTAVYYCAARNTMSGSMSSSAYPYWGQGTQVTVSSGGGGSGGGGSGGGGSGGGGSQVQLVESGGGLVQAGASLRLSCAASERTFGHYAMGWFRQAPGKEREFVATISWKGGTTGYAHSVKGRFTISRDSAKNMVYLQMNSLKPEDTAVYYCAARNTMSGSMSSSAYPYWGQGTQVTVSSGAPGSGPPSFSEGSGGSRTPEKGFSDREPTRPPRPILQRQDDIVQEKRLSRGISHASSSIVSLARSHVSSNGGGGGSNEHPLEMPICAFQLPDLTVYNEDFRSFIERDLIEQSMLVALEQAGRLNWWVSVDPTSQRLLPLATTGDGNCLLHAASLGMWGFHDRDLMLRKALYALMEKGVEKEALKRRWRWQQTQQNKESGLVYTEDEWQKEWNELIKLASSEPRMHLGTNGANCGGVESSEEPVYESLEEFHVFVLAHVLRRPIVVVADTMLRDSGGEAFAPIPFGGIYLPLEVPASQCHRSPLVLAYDQAHFSALVSMEQKENTKEQAVIPLTDSEYKLLPLHFAVDPGKGWEWGKDDSDNVRLASVILSLEVKLHLLHSYMNVKWIPLSSDAQAPLAQ

increase in SYNGAP1 expression over the control: ≥ 2 fold
B2: FireflyLuciferase-P2A-anti-syngap1_FLX00156-Cezanne (other)
chain: MEDAKNIKKGPAPFYPLEDGTAGEQLHKAMKRYALVPGTIAFTDAHIEVDITYAEYFEMSVRLAEAMKRYGLNTNHRIVVCSENSLQFFMPVLGALFIGVAVAPANDIYNERELLNSMGISQPTVVFVSKKGLQKILNVQKKLPIIQKIIIMDSKTDYQGFQSMYTFVTSHLPPGFNEYDFVPESFDRDKTIALIMNSSGSTGLPKGVALPHRTACVRFSHARDPIFGNQIIPDTAILSVVPFHHGFGMFTTLGYLICGFRVVLMYRFEEELFLRSLQDYKIQSALLVPTLFSFFAKSTLIDKYDLSNLHEIASGGAPLSKEVGEAVAKRFHLPGIRQGYGLTETTSAILITPEGDDKPGAVGKVVPFFEAKVVDLDTGKTLGVNQRGELCVRGPMIMSGYVNNPEATNALIDKDGWLHSGDIAYWDEDEHFFIVDRLKSLIKYKGYQVAPAELESILLQHPNIFDAGVAGLPDDDAGELPAAVVVLEHGKTMTEKEIVDYVASQVTTAKKLRGGVVFVDEVPKGLTGKLDARKIREILIKAKKGGKIAVTRLKGSGATNFSLLKQAGDVEENPGPRSGTGSSGQVQLVESGGGLVQPGGSLRLACAASGFTFGTHAMHWVRWAPGKGFEWVSTISSGGGGTRYADSVKGRFTISRDNAKNTVYLQMDNLKPEDTAVYYCNSPSNIANDNWGQGTQVTVSSGGGGSGGGGSGGGGSGGGGSQVQLVESGGGLVQPGGSLRLACAASGFTFGTHAMHWVRWAPGKGFEWVSTISSGGGGTRYADSVKGRFTISRDNAKNTVYLQMDNLKPEDTAVYYCNSPSNIANDNWGQGTQVTVSSGAPGSGPPSFSEGSGGSRTPEKGFSDREPTRPPRPILQRQDDIVQEKRLSRGISHASSSIVSLARSHVSSNGGGGGSNEHPLEMPICAFQLPDLTVYNEDFRSFIERDLIEQSMLVALEQAGRLNWWVSVDPTSQRLLPLATTGDGNCLLHAASLGMWGFHDRDLMLRKALYALMEKGVEKEALKRRWRWQQTQQNKESGLVYTEDEWQKEWNELIKLASSEPRMHLGTNGANCGGVESSEEPVYESLEEFHVFVLAHVLRRPIVVVADTMLRDSGGEAFAPIPFGGIYLPLEVPASQCHRSPLVLAYDQAHFSALVSMEQKENTKEQAVIPLTDSEYKLLPLHFAVDPGKGWEWGKDDSDNVRLASVILSLEVKLHLLHSYMNVKWIPLSSDAQAPLAQ

increase in SYNGAP1 expression over the control: ≥ 2 fold
B3: FireflyLuciferase-P2A-anti-syngap1_FLX00153-Cezanne (other)
chain: MEDAKNIKKGPAPFYPLEDGTAGEQLHKAMKRYALVPGTIAFTDAHIEVDITYAEYFEMSVRLAEAMKRYGLNTNHRIVVCSENSLQFFMPVLGALFIGVAVAPANDIYNERELLNSMGISQPTVVFVSKKGLQKILNVQKKLPIIQKIIIMDSKTDYQGFQSMYTFVTSHLPPGFNEYDFVPESFDRDKTIALIMNSSGSTGLPKGVALPHRTACVRFSHARDPIFGNQIIPDTAILSVVPFHHGFGMFTTLGYLICGFRVVLMYRFEEELFLRSLQDYKIQSALLVPTLFSFFAKSTLIDKYDLSNLHEIASGGAPLSKEVGEAVAKRFHLPGIRQGYGLTETTSAILITPEGDDKPGAVGKVVPFFEAKVVDLDTGKTLGVNQRGELCVRGPMIMSGYVNNPEATNALIDKDGWLHSGDIAYWDEDEHFFIVDRLKSLIKYKGYQVAPAELESILLQHPNIFDAGVAGLPDDDAGELPAAVVVLEHGKTMTEKEIVDYVASQVTTAKKLRGGVVFVDEVPKGLTGKLDARKIREILIKAKKGGKIAVTRLKGSGATNFSLLKQAGDVEENPGPRSGTGSSGQLQLVESGGGLVQPGESLRLSCAASGFTFSNYRMYWVRMAPGKGLEWVSDIDRSGTYTYYADSVKGRFAISRDNAKNTVYLQMNSLKPEDTAVYYCAADRRLIVDLTPEVYDHWGQGTQVTVSSGAPGSGPPSFSEGSGGSRTPEKGFSDREPTRPPRPILQRQDDIVQEKRLSRGISHASSSIVSLARSHVSSNGGGGGSNEHPLEMPICAFQLPDLTVYNEDFRSFIERDLIEQSMLVALEQAGRLNWWVSVDPTSQRLLPLATTGDGNCLLHAASLGMWGFHDRDLMLRKALYALMEKGVEKEALKRRWRWQQTQQNKESGLVYTEDEWQKEWNELIKLASSEPRMHLGTNGANCGGVESSEEPVYESLEEFHVFVLAHVLRRPIVVVADTMLRDSGGEAFAPIPFGGIYLPLEVPASQCHRSPLVLAYDQAHFSALVSMEQKENTKEQAVIPLTDSEYKLLPLHFAVDPGKGWEWGKDDSDNVRLASVILSLEVKLHLLHSYMNVKWIPLSSDAQAPLAQ

increase in SYNGAP1 expression over the control: ≥ 2 fold
B4: FireflyLuciferase-P2A-anti-syngap1_FLX00152-Cezanne (other)
chain: MEDAKNIKKGPAPFYPLEDGTAGEQLHKAMKRYALVPGTIAFTDAHIEVDITYAEYFEMSVRLAEAMKRYGLNTNHRIVVCSENSLQFFMPVLGALFIGVAVAPANDIYNERELLNSMGISQPTVVFVSKKGLQKILNVQKKLPIIQKIIIMDSKTDYQGFQSMYTFVTSHLPPGFNEYDFVPESFDRDKTIALIMNSSGSTGLPKGVALPHRTACVRFSHARDPIFGNQIIPDTAILSVVPFHHGFGMFTTLGYLICGFRVVLMYRFEEELFLRSLQDYKIQSALLVPTLFSFFAKSTLIDKYDLSNLHEIASGGAPLSKEVGEAVAKRFHLPGIRQGYGLTETTSAILITPEGDDKPGAVGKVVPFFEAKVVDLDTGKTLGVNQRGELCVRGPMIMSGYVNNPEATNALIDKDGWLHSGDIAYWDEDEHFFIVDRLKSLIKYKGYQVAPAELESILLQHPNIFDAGVAGLPDDDAGELPAAVVVLEHGKTMTEKEIVDYVASQVTTAKKLRGGVVFVDEVPKGLTGKLDARKIREILIKAKKGGKIAVTRLKGSGATNFSLLKQAGDVEENPGPRSGTGSSGQVQLVESGGGLVQPGGSLRLSCAASGFSFSNFPMMWVRQAPGKGREWVADINQDGRNTYYADSVKGRFTISRDNAKTTVYLQMNNLNPEDTAVYYCQAIRTTTHFDSWGQGTQVTVSSGAPGSGPPSFSEGSGGSRTPEKGFSDREPTRPPRPILQRQDDIVQEKRLSRGISHASSSIVSLARSHVSSNGGGGGSNEHPLEMPICAFQLPDLTVYNEDFRSFIERDLIEQSMLVALEQAGRLNWWVSVDPTSQRLLPLATTGDGNCLLHAASLGMWGFHDRDLMLRKALYALMEKGVEKEALKRRWRWQQTQQNKESGLVYTEDEWQKEWNELIKLASSEPRMHLGTNGANCGGVESSEEPVYESLEEFHVFVLAHVLRRPIVVVADTMLRDSGGEAFAPIPFGGIYLPLEVPASQCHRSPLVLAYDQAHFSALVSMEQKENTKEQAVIPLTDSEYKLLPLHFAVDPGKGWEWGKDDSDNVRLASVILSLEVKLHLLHSYMNVKWIPLSSDAQAPLAQ
